Data as given in PMC4546403.

B1: Drosophila Smo (dSmo): dSmoNQ5 (protein)
parent chain: MQYLNFPRMPNIMMFLEVAILCLWVVADASASSAKFGSTTPASAQQSDVELEPINGTLNYRLYAKKGRDDKPWFDGLDSRHIQCVRRARCYPTSNATNTCFGSKLPYELSSLDLTDFHTEKELNDKLNDYYALKHVPKCWAAIQPFLCAVFKPKCEKINGEDMVYLPSYEMCRITMEPCRILYNTTFFPKFLRCNETLFPTKCTNGARGMKFNGTGQCLSPLVPTDTSASYYPGIEGCGVRCKDPLYTDDEHRQIHKLIGWAGSICLLSNLFVVSTFFIDWKNANKYPAVIVFYINLCFLIACVGWLLQFTSGSREDIVCRKDGTLRHSEPTAGENLSCIVIFVLVYYFLTAGMVWFVFLTYAWHWRAMGHVQDRIDKKGSYFHLVAWSLPLVLTITTMAFSEVDGNSIVGICFVGYINHSMRAGLLLGPLCGVILIGGYFITRGMVMLFGLKHFANDIKSTSASNKIHLIIMRMGVCALLTLVFILVAIACHVTEFRHADEWAQSFRQFIICKISSVFEEKSSCRIENRPSVGVLQLHLLCLFSSGIVMSTWCWTPSSIETWKRYIRKKCGKEVVEEVKMPKHKVIAQTWAKRKDFEDKGRLSITLYNTHTDPVGLNFDVNDLNSSETNDISSTWAAYLPQCVKRRMALTGAATGNSSSHGPRKNSLDSEISVSVRHVSVESRRNSVDSQVSVKIAEMKTKVASRSRGKHGGSSSNRRTQRRRDYIAAATGKSSRRRESSTSVESQVIALKKTTYPNASHKVGVFAHHSSKKQHNYTSSMKRRTANAGLDPSILNEFLQKNGDFIFPFLQNQDMSSSSEEDNSRASQKIQDLNVVVKQQEISEDDHDGIKIEELPNSKQVALENFLKNIKKSNESNSNRHSRNSARSQSKKSQKRHLKNPAADLDFRKDCVKYRSNDSLSCSSEELDVALDVGSLLNSSFSGISMGKPHSRNSKTSCDVGIQANPFELVPSYGEDELQQAMRLLNAASRQRTEAANEDFGGTELQGLLGHSHRHQREPTFMSESDKLKMLLLPSK
B2: Drosophila Smo (dSmo): dSmoN336Q (protein)
parent chain: B1 parent chain
B3: Drosophila Smo (dSmo): dSmoN213Q,N336Q (protein)
parent chain: B1 parent chain
B4: Drosophila Smo (dSmo): N213Q (protein)
parent chain: B1 parent chain
B5: Drosophila Smo (dSmo): N213Q,N336Q (protein)
parent chain: B1 parent chain
B6: Drosophila Smo (dSmo): N336Q (protein)
parent chain: B1 parent chain
B7: Drosophila Smo (dSmo): N195Q,N336Q (protein)
parent chain: B1 parent chain
B8: Drosophila Smo (dSmo): N184Q (protein)
parent chain: B1 parent chain
B9: Drosophila Smo (dSmo): N95Q (protein)
parent chain: B1 parent chain
B10: Drosophila Smo (dSmo): N195Q (protein)
parent chain: B1 parent chain
B11: Drosophila Smo (dSmo): N184Q,N336Q (protein)
parent chain: B1 parent chain
B12: Drosophila Smo (dSmo): N95Q,N336Q (protein)
parent chain: B1 parent chain

Experiment: western blot of Cl8 cell lysates
Conditions: glycan lost; control: wild type dSmo

Protein	expression_or_secretion
B1	increases
B2	increases

Experiment: western blot of wing imaginal disc lysates
Conditions: glycan lost; control: wild type dSmo transgene

Protein	expression_or_secretion
B1	no change
B3	increases

Experiment: cycloheximide chase, Cl8 cells, densitometry
Conditions: glycan lost; control: wild type dSmo

Protein	degradation_or_half_life, half_life
B1	increases, ~4 vs ~1

Experiment: EndoH-resistant post-ER vs EndoH-sensitive ER fraction, western
Conditions: glycan lost; control: wild type dSmo

Protein	localisation_or_trafficking
B4	no change
B5	decreases
B6	decreases

Experiment: immunofluorescence, Hh-induced plasma membrane vs ER marker, Cl8
Conditions: glycan lost; control: wild type dSmo

Protein	localisation_or_trafficking
B1	abolishes
B7	decreases
B8	no change
B4	no change
B5	decreases
B9	no change
B10	no change
B11	decreases
B6	abolishes
B12	decreases

Experiment: biotin-maleimide free-thiol labelling, NeutrAvidin capture (disulfide integrity)
Conditions: glycan lost; control: wild type dSmo

Protein	stability_or_folding
B5	decreases
B6	decreases
